The source of these data is US20180201951A1.

The assay deals with interleukin 1 receptor 1 (Il1r1), murine (mouse) (UniProt P13504). Kind of assay: cell-based or functional assay.
UniProt P13504, sequence (P13504 20-576): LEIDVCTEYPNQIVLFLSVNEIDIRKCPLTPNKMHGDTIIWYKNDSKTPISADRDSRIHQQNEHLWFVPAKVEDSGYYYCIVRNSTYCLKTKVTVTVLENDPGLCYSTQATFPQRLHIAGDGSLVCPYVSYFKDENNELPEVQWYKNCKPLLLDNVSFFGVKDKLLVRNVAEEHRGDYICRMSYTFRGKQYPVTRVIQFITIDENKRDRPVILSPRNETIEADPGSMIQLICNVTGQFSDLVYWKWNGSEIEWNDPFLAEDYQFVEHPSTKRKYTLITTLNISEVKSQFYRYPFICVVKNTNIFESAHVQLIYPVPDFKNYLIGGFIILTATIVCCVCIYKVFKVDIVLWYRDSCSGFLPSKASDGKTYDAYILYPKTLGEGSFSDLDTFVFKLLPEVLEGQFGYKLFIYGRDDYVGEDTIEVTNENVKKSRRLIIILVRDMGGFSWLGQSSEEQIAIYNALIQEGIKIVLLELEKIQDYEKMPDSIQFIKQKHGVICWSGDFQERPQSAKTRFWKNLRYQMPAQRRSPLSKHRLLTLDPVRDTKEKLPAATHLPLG

IL-1α (ligand): the NF-κB transcriptional activity (luciferase reporter), fold induction after IL-1α stimulation of Il1r1+/- cells was 4.8 fold and the NF-κB transcriptional activity (luciferase reporter), fold induction after IL-1α stimulation of wild-type (Il1r1+/+) cells worked out at 6.3 fold.
